Among the data in article PMC4190666 are fold increase of p38 in TAB1 immunoprecipitates with A-769662 over DMSO control values, retold here.

This experiment has as its target TAB1 (full length, 60-kDa isoform) (human (endogenous in primary CD4+ T cells)) (UniProt Q15750). Briefly: co-IP.
Chain of UniProt Q15750 (Q15750 whole entry, canonical isoform): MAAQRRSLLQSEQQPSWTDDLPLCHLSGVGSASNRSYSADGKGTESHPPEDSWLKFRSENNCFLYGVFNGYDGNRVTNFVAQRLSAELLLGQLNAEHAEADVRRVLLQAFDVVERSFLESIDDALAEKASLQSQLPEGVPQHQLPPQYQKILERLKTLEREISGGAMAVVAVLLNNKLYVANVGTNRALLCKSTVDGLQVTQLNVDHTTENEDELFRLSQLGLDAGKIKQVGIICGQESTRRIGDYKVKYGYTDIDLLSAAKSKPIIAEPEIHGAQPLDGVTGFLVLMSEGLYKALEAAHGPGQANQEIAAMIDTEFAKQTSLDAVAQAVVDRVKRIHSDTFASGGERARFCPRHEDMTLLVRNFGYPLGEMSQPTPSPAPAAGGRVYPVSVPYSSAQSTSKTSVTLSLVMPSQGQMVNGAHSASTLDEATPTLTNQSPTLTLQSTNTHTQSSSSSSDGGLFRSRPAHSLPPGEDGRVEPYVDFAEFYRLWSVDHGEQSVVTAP

“p38 MAP kinase (total p38) (from UniProt Q16539 1-360) (enzyme)” registered a fold increase of p38 in TAB1 immunoprecipitates with A-769662 over DMSO control of 2.5 to 3 fold.
